This note sets out measurements from patent US20210301012A1 (UCB, published 2021).

The labels stand for the following.
B1: VHH6 (VHH)
VHH: DVQFVESGGGSVHAGGSLRLNCATSGYIYSTYCMGWFRQAPGKEREGVAHIYTNSGRTYYADSVKGRFTISQDNAKNTVYLQMNSLKPEDTAIYYCAARPSIRCASFSATEYKDWGQGTQVTVSS
notes: Camel single domain antibody expressed in Expi-HEK cells; The His tag was used for capture in Octet and in the NTA-chip SPR; also called wtVHH6; VHH6-6His; not shown: C-terminal TEV site and 6His tag (VHH6-6His)
B2: VHH6 Y27A (VHH)
VHH: B1 VHH with Y27A
notes: Tested as ExpiHEK supernatant; not shown: C-terminal His tag (captured on NTA chip)
B3: VHH6 K113A (VHH)
VHH: B1 VHH with K113A
notes: as for B2
B4: VHH6 Y27A Y32A (VHH)
VHH: B1 VHH with Y27A, Y32A
notes: Tested as ExpiHEK supernatant; also called 27/32 double mutant; not shown: C-terminal His tag (captured on NTA chip)
B5: VHH6 K113S S101A (VHH)
VHH: B1 VHH with S101A, K113S
notes: The text describes only alanine substitutions; not shown: C-terminal His tag (captured on NTA chip)
B6: VHH6 Y32A (VHH)
VHH: B1 VHH with Y32A
notes: as for B2
B7: VHH6 S101A (VHH)
VHH: B1 VHH with S101A
notes: as for B2
B8: VHH6 K113A S101A (VHH)
VHH: B1 VHH with S101A, K113A
notes: Tested as ExpiHEK supernatant; also called Ser101Ala/Lys113Ala; 113/101 double mutant; not shown: C-terminal His tag (captured on NTA chip)
B9: VHH6 N74A S101A (VHH)
VHH: B1 VHH with N74A, S101A
notes: Tested as ExpiHEK supernatant; also called Asn74Ala/Ser101Ala; 74/101 double mutant; not shown: C-terminal His tag (captured on NTA chip)
B10: VHH6 N74A (VHH)
VHH: B1 VHH with N74A
notes: as for B2
B11: gp80 (receptor, human, UniProt P08887 20-358, looked up)
chain: LAPRRCPAQEVARGVLTSLPGDSVTLTCPGVEPEDNATVHWVLRKPAAGSHPSRWAGMGRRLLLRSVQLHDSGNYSCYRAGRPAGTVHLLVDVPPEEPQLSCFRKSPLSNVVCEWGPRSTPSLTTKAVLLVRKFQNSPAEDFQEPCQYSQESQKFSCQLAVPEGDSSFYIVSMCVASSVGSKFSKTQTFQGCGILQPDPPANITVTAVARNPRWLSVTWQDPHSWNSSFYRLRFELRYRAERSKTFTTWMVKDLQHHCVIHDAWSGLRHVVQLRAQEEFGQGEWSEWSPEAMGTPWTESRSPPAENEVSTPMQALTTNKDDDNILFRDSANATSLPVQD
notes: Soluble gp80 as used in ELISA, MST, Octet, SEC and SPR; In part of the ELISA work the methods name gp80-hscFc (gp80 M1-P322, C211A, C277A, fused to single chain human IgG Fc); also called IL-6 receptor; CD126

Changes are numbered by the printed parent chain. Names and notes keep the numbering of the source.

Experiment [1] concerns the target T1, IL-6-gp80 complex (human, UniProt P05231 28-212; P08887 20-358).
T1 construct: Non-covalent transient heterodimer formed by mixing IL-6 and gp80
Nature of the experiment: SPR (BIAcore T200, 25 C), VHH6 immobilised, IL-6 titrated (0-250 nM) with gp80 constant at 2 uM. How it is done: (§1) Quantitative SPR analysis was carried out using a BIAcore T200 (GE Healthcare). The binding measurements were performed at a flow rate of 100 μl/min. The protein of interest was injected for 180 s and the dissociation was monitored for 360 s. […] The sensor surface was regenerated with […] MgCl₂. Background subtraction binding curves were analyzed using the T200 evaluation software (version 1.0) following standard procedures. Due to the complexity of the interactions studied, the data analysis was limited to the most informative, in this case kd parameter, which was determined by fitting a single exponential decay model to dissociation data within 360 s range.
In general terms: In SPR one partner is held on a chip, and binding of the other changes the refractive index at the surface.

The target of experiment [2] is T1, IL-6-gp80 complex. Briefly: SPR (BIAcore 3000), His-tagged VHH captured from supernatant on Ni-NTA chip, equimolar IL-6 + gp80 (50 nM each) injected. On the procedure:
(§2) SPR analysis was performed using a BIAcore 3000 (GE Healthcare). […] An equimolar mixture of IL-6 and gp80 (50 nM each) was injected for 300 s at a flow rate of 10 μl/min followed by a dissociation phase of 300 s. At the end of each cycle the chip surface was regenerated by injection of 350 mM EDTA (2×10 μl).
(§3) To assess the contributions of the side chains to binding, single alanine substitutions at positions 27, 32, 74, 101 and 113, and double alanine substitutions at positions 27/32, 74/101 and 113/101 were generated. […] In a three-component system, it is not possible to calculate meaningful association rate constants. However, the dissociation rate constants, being concentration independent, were determined.

Experiment [3] has as its target B11. Briefly: ELISA, plate coated with gp80, absorbance 630 nm. (In general: In an ELISA, binding on a coated surface is turned into a signal by an enzyme label.)
Experiment [4] addresses T1, IL-6-gp80 complex. Briefly: MicroScale Thermophoresis, VHH6 titrated into IL-6-NT647 + gp80 (panel IL-6-NT647+gp80+VHH6). From the text: (§4) (a) ELISA: FusionIL-6, IL-6 or gp80 were immobilized overnight on plates. […] (b) MicroScale Thermophoresis (MST): IL-6 and gp80 were labelled with NT647.
(In general: In MST a laser heats a spot of the sample, and binding alters the fluorescence response.)

Experiment [5] concerns the target T2, IL-6 (human, UniProt P05231 28-212).
T2 construct: IL-6 as used in ELISA, MST, Octet, SEC and SPR; also called interleukin-6; hIL-6
Briefly: ELISA, plate coated with IL-6, absorbance 630 nm. On the procedure: ELISA—IL-6, gp80 and FusionIL-6 used in ELISA to coat plates were diluted to a final concentration of […] in carbonate buffer (0.16% Na₂CO₃ and 0.3% NaHCO₃ in H₂O). Coated plates were incubated at 4° C. overnight. The following day, the plates were washed twice in PBST, blocked in PBS/5% BSA for 2 h at RT, and again washed twice in PBST. For preliminary screening, either supernatant from HEK cells or purified VHHs was added. Anti-llama-HRP or anti-His-HRP antibody was added for 1 h at RT. Afterwards the plates were washed twice with PBST and developed with TMB substrate. The reaction was stopped by adding NaF. […]

Experiment [6] addresses T1, IL-6-gp80 complex. Nature of the experiment: MicroScale Thermophoresis, VHH6 titrated into gp80-NT647 + IL-6 (panel gp80-NT647+IL-6+VHH6).
Excerpt: as §4

Experiment [7] addresses T1, IL-6-gp80 complex. Briefly: SPR (BIAcore 3000), His-tagged VHH captured from supernatant on Ni-NTA chip, equimolar IL-6 + gp80 (50 nM each) injected. On the procedure: as §2, §3
This is another data set of the same source.

Experiment [8] addresses T1, IL-6-gp80 complex. Briefly: SPR (BIAcore T200, 25 C), VHH6 immobilised, gp80 titrated (0-250 nM) with IL-6 constant at 2 uM. How it is done:
as §1

For experiment [9], the target named is T1, IL-6-gp80 complex. Briefly: SPR, VHH captured on Ni-NTA chip, IL-6 + gp80 injected; reference VHH6. How it is done: as §2, §3
The target of experiment [10] is T2, IL-6. Nature of the experiment: SPR, IL-6 immobilised, gp80 injected, with VHH6 against without VHH6. From the text: For brevity, FIGS. 10a and b only report the SPR sensorgrams for IL-6 immobilization.

Regarding B1, the koff turned out to be 0.000309 s⁻¹ in [1], 0.00036 s⁻¹ in experiment [2], 0.00036 s⁻¹ in [7] and 0.000375 s⁻¹ in [8]. For the same molecule, the binding result in experiment [3] and in [5] was “no binding” each time. Besides, the half-maximal effective concentration (EC50 (read off the curve)) in experiment [4] is around 0.03 µM; in experiment [6], around 0.06 µM. On to B2, for which the “fold increase of dissociation rate against VHH6” value in experiment [9] is 1.9 fold. In experiment [2], the koff came to 0.0007 s⁻¹.

On to B3, for which the off-rate (koff) in [2] was 0.00026 s⁻¹. As to B4, the koff in experiment [7] amounted to 0.00043 s⁻¹. Take B5: the off-rate (koff) in experiment [7] is 0.00164 s⁻¹. Take B6: the koff in experiment [2] stood at 0.0003 s⁻¹. Same read-out and setting: the figure for B7 is 0.00039 s⁻¹.

As for B8, the “fold increase of dissociation rate against VHH6” value in [9] was 4.3 fold. For the same molecule, the koff in [7] stood at 0.00143 s⁻¹. For B9, in that order: 3.8 fold and 0.00135 s⁻¹.

As for B10, the dissociation rate constant (koff) in [2] was determined as 0.00015 s⁻¹. Take B11: in experiment [10], the “fold reduction of koff by VHH6” value is 225 fold.

For orientation: koff means a measure of how fast the partners let go of each other. As usually defined, the EC50 (read off the curve) is the concentration giving half of the maximal effect.
